Sequences and labels used below:
B1: WT-HSPB5 (full-length HSPB5, alphaB-crystallin) (natural protein, human, UniProt P02511 1-175, looked up)
chain: MDIAIHHPWIRRPFFPFHSPSRLFDQFFGEHLLESDLFPTSTSLSPFYLRPPSFLRAPSWFDTGLSEMRLEKDRFSVNLDVKHFSPEELKVKVLGDVIEVHGKHEERQDEHGFISREFHRKYRIPADVDPLTITSSLSSDGVLTVNGPRKQVSGPERTIPITREEKPAVTAAPKK
notes: HSPB5 (alphaB-crystallin), human, full length; Forms polydisperse oligomers; also called αB-crystallin; source: expressed and purified as described previously (Jehle et al., 2009)
B2: H104Q-HSPB5 (full-length HSPB5 with His-104 replaced by Gln) (natural protein, human, UniProt P02511 1-175, looked up)
chain: B1 chain with H104Q
notes: HSPB5 (alphaB-crystallin), human, full length, with H104Q; source: growth and purification similar to that of wild-type proteins (Jehle et al., 2009)
B3: H104K-HSPB5 (full-length HSPB5 with His-104 replaced by Lys) (natural protein, human, UniProt P02511 1-175, looked up)
chain: B1 chain with H104K
notes: HSPB5 (alphaB-crystallin), human, full length, with H104K; source: growth and purification similar to that of wild-type proteins (Jehle et al., 2009)
B4: bovine αLactalbumin (natural protein, UniProt P00711 20-142, looked up)
chain: EQLTKCEVFRELKDLKGYGGVSLPEWVCTTFHTSGYDTQAIVQNNDSTEYGLFQINNKIWCKDDQNPHSSNICNISCDKFLDDDLTDDIMCVKKILDKVGINYWLAHKALCSEKLDQWLCEKL
notes: alpha-lactalbumin, bovine, Sigma L6010; Model client protein; source: bought: Sigma (L6010)
B5: HSPB5-ACD (alpha-crystallin domain of HSPB5, residues 64-152) (domain or fragment, human, UniProt P02511 64-152, looked up)
chain: GLSEMRLEKDRFSVNLDVKHFSPEELKVKVLGDVIEVHGKHEERQDEHGFISREFHRKYRIPADVDPLTITSSLSSDGVLTVNGPRKQV
notes: HSPB5 (alphaB-crystallin), human, alpha-crystallin domain, residues 64-152; 15N- or 13C,15N-labelled for the NMR experiments; also called WT-ACD; WT-HSPB5-ACD; source: expressed and purified as described previously (Jehle et al., 2009)
B6: H104K-ACD (HSPB5-ACD with His-104 replaced by Lys) (domain or fragment, human, UniProt P02511 64-152, looked up)
chain: B5 chain with H41K
notes: HSPB5 (alphaB-crystallin), human, alpha-crystallin domain, residues 64-152, with H104K; source: growth and purification similar to that of wild-type proteins (Jehle et al., 2009)
B7: H104Q-ACD (HSPB5-ACD with His-104 replaced by Gln) (domain or fragment, human, UniProt P02511 64-152, looked up)
chain: B5 chain with H41Q
notes: HSPB5 (alphaB-crystallin), human, alpha-crystallin domain, residues 64-152, with H104Q; source: growth and purification similar to that of wild-type proteins (Jehle et al., 2009)

Series [1] deals with the molecule itself. The series is described as follows: SEC-MALS; 40 μM subunits, pre-incubated at 37°C for 30 min; 50 mM sodium phosphate pH 7.5, 100 mM NaCl, 1 mM DTT; size of the oligomers.
Series [2] concerns the molecule itself. The series is described as follows: SEC-MALS; 40 μM subunits, equilibrated at 37°C for at least 60 min; 50 mM sodium phosphate pH 6.5, 100 mM NaCl, 1 mM DTT; size of the oligomers.
Series [3] addresses B1. Description: SEC-MALS; WT- and H104K-HSPB5 incubated together at ratios 1:0, 2:1, 1:1, 1:2, 0:1; mixed oligomers. Particulars: both partners purified.
Series [4] addresses B2. The series is described as follows: SEC-MALS; HSPB5 (40 μM subunits) pre-incubated with αLac (240 μM in the methods, 120 μM in the legend) at 37°C, pH 7.5, 10 min, then 50 mM DTT for 50 min, filtered and injected; SDS-PAGE of peak fractions. The following applies: both partners purified.
Series [5] deals with B3. The description is as above. The following applies: both partners purified.
Series [6] deals with the molecule itself. The series is described as follows: ITC; dilution ITC, 1 mM WT-ACD, dimer to monomers; 25°C, pH 6.5, 50 mM sodium phosphate, 100 mM NaCl.
Series [7] concerns the molecule itself. The series is described as follows: ITC; dilution ITC, 1 mM WT-ACD, dimer to monomers; 25°C, pH 7.5, 50 mM sodium phosphate, 100 mM NaCl.
Series [8] deals with the molecule itself. The series is described as follows: ITC; dilution ITC, 1 mM WT-ACD, dimer to monomers; 37°C, pH 7.5, 50 mM sodium phosphate, 100 mM NaCl.
Series [9] concerns the molecule itself. Description: 15N-CPMG relaxation dispersion NMR; 700 and 200 μM ACD, pH 7.5, 37°C; global fit of dimer interface residues; rate constants worked out with the KD of 36 μM from ITC; dimer to monomers.
Series [10] deals with the molecule itself. The series is described as follows: 1H-15N HSQC NMR; 200 μM ACD, pH 7.5, 22°C, NMR buffer; populations of dimer and monomer peaks; dimer to monomers.

Positions count from the first letter of the chain named. Numbers in names are those of the source.

Take B1: the figures for the “stoichiometry N” value in series [1] and in series [2] were around 24 subunits and around 36 subunits per oligomer, respectively.
Turning to B2, the binding result in series [1] is given as “binds”.
On to B3, for which the binding result in [3] was “binds”. In series [1], the “stoichiometry N” value was around 41 subunits.
Regarding B4, the binding result in series [4] and in series [5] was “binds” throughout.
On to B5, for which, in series [6], the dissociation constant Kd amounted to 30 ± 16 µM and the dH came to 3.24 ± 0.432 kcal/mol. Moreover, in [7], the dissociation constant (Kd) was 2 ± 2 µM and the dH was determined as 8.77 ± 3.96 kcal/mol. In series [8], this molecule registered a Kd of 36 ± 2 µM and a dH of 9.33 ± 0.527 kcal/mol. In series [9], this molecule showed a koff of 400 s⁻¹ and a kon of 1.1e+07 M⁻¹ s⁻¹.
In series [10], B6 returned an equilibrium dissociation constant (Kd) above 1000 µM.
The same measure, in the same setting: for B7 the value was 100 to 500 µM.
